This note sets out measurements from patent publication US20150074844A1 (PURDUE RESEARCH FOUNDATION, published 2015).

B1: c-myc-tagged PYL13 (other)
chain: MESSKQKRCRSSVVETIEAPLPLVWSILRSFDKPQAYQRFVKSCTMRSGGGGGKGGEGKGSVRDVTLVSGFPADFSTERLEELDDESHVMVVSIIGGNHRLVNYKSKTKVVASPEDMAKKTVVVESYVVDVPEGTSEEDTIFFVDNIIRYNLTSLAKLTKKMMK
notes: Transiently expressed in Col-0 protoplasts for co-IP; also called c-myc-PYL13; MYC-PYL13; not shown: c-myc tag
B2: PYL13 fused to the GAL4-activating domain (AD) (other, not shown: large carriers)
chain: B1 chain
notes: also called AD-PYL13
B3: PYL11 fused to the GAL4-DNA binding domain (BD) (receptor, not shown: small tags and cut ends)
chain: METSQKYHTCGSTLVQTIDAPLSLVWSILRRFDNPQAYKQFVKTCNLSSGDGGEGSVREVTVVSGLPAEFSRERLDELDDESHVMMISIIGGDHRLVNYRSKTMAFVAADTEEKTVVVESYVVDVPEGNSEEETTSFADTIVGFNLKSLAKLSERVAHLKL
notes: Yeast two-hybrid construct
B4: PYL11-nLUC (receptor)
chain: B3 chain
notes: LUC complementation assay in protoplasts; also called PYLs-nLUC; not shown: N-terminal domain of firefly luciferase
B5: PYL12 fused to the GAL4-DNA binding domain (BD) (receptor, not shown: large carriers; small tags and cut ends)
chain: MKTSQEQHVCGSTVVQTINAPLPLVWSILRRFDNPKTFKHFVKTCKLRSGDGGEGSVREVTVVSDLPASFSLERLDELDDESHVMVISIIGGDHRLVNYQSKTTVFVAAEEEKTVVVESYVVDVPEGNTEEETTLFADTIVGCNLRSLAKLSEKMMELT
notes: Yeast two-hybrid construct

Test [1] deals with ABI1 without tag (purified recombinant) (Arabidopsis) (UniProt P49597). As to the kind of experiment: cell-based or functional assay.
Chain of ABI1 without tag (purified recombinant) (Arabidopsis) (P49597 whole entry): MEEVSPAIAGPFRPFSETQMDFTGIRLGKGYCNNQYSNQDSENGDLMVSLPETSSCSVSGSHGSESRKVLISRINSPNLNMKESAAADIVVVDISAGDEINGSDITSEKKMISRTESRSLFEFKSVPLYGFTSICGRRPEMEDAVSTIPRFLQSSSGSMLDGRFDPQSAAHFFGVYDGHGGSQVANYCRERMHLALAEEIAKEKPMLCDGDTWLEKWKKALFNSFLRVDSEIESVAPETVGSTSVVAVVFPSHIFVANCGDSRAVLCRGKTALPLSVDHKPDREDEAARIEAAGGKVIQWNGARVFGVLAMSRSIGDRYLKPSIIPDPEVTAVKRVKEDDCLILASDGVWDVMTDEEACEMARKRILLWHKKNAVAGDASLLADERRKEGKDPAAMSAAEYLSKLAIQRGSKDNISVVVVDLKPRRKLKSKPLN
The target in a further test is T1, PP2CA-HA (Arabidopsis, UniProt P49598 1-399).
T1 construct: also called hemagglutinin (HA)-tagged PP2CA; not shown: HA tag
T1 sequence (looked up): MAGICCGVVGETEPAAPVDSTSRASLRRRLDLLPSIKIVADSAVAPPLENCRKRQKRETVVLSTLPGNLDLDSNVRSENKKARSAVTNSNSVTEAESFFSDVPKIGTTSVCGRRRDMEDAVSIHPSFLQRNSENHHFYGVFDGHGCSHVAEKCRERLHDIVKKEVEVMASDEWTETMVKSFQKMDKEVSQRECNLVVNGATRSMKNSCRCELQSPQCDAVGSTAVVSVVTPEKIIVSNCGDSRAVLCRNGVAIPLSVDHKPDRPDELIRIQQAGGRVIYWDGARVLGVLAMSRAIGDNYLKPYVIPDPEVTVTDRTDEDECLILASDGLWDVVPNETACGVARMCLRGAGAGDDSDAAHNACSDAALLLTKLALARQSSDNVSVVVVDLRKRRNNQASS
In words: co-IP from protoplasts with anti-HA agarose, western blot; with or without 10 µM ABA. The source says:
Coimmunoprecipitation (co-IP) assays using ABI1-HA and PP2CA-HA as baits captured c-myc-PYL13 in an ABA-independent manner (FIG. 3C). The binding of PP2CA with PYL13 again appeared much stronger than that of ABI1 with PYL13. […] Total soluble proteins (input) were extracted from Arabidopsis protoplasts that transiently expressed the indicated constructs. PP2C-interacting proteins were immunoprecipitated with anti-HA mouse antibodies and detected with anti-HA and anti-cMYC rabbit antibodies.
PP2CA-HA, ABI1-HA, and MYC-PYL13 plasmids (20 μg each) were transiently expressed in wild-type (Col-0) protoplasts. After transfection, protoplasts were incubated in WI buffer under light at room temperature for 16.5 h. Protoplasts were treated with 10 μM ABA for 1.5 h before they were harvested, frozen in liquid N2, and stored at −80° C. The frozen protoplasts were resuspended in 1 ml of immunoprecipitation (IP) buffer containing 50 mM Tris-HCl, pH 7.4, 150 mM NaCl, 1 mM EDTA, 0.1% (v/v) Triton X-100, and 1× protease inhibitor cocktail (SIGMA) with or without 10 μM ABA and then centrifuged at 21000 g for 30 min at 4° C. The supernatant was used as input and was incubated for 4 h at 4° C. with 30 μl of monoclonal anti-HA-agarose antibody produced in mouse (SIGMA, A2095). […]
(In general: In western blotting, separated proteins are transferred to a membrane and probed.)

The target of test [2] is T2, PYL3 fused to the GAL4-DNA binding domain (BD) (Arabidopsis thaliana, UniProt Q9SSM7 1-209).
T2 construct: Yeast two-hybrid construct
T2 sequence: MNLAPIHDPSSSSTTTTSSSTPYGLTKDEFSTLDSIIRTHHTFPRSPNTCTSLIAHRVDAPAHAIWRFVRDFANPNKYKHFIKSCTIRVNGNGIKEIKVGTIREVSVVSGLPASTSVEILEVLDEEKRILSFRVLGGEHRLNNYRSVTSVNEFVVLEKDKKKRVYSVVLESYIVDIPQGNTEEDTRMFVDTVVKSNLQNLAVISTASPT
In words: yeast two-hybrid, growth on media lacking His and His/Ade, with and without ABA. The protocol: (§1) To confirm the interaction between PYL13 and PYL2/PYL9 and to determine whether PYL13 may bind with other PYLs, the interaction of PYL13 with PYLs was examined in yeast two-hybrid assays, as shown in FIG. 5. In this experiment, PYL13 interacted with PYR1, PYL1-4, PYL6, and PYL11-12 in an ABA-independent manner (FIG. 5A). PYL13 fused to the GAL4-activating domain (AD) was used as prey, and PYLs fused to the GAL4-DNA binding domain (BD) were used as baits. Interaction was determined by growth assay on media lacking His and His/Ade in the presence and absence of ABA. Dilutions (10⁻¹, 10⁻², and 10⁻³) of saturated cultures were spotted onto the plates, which were photographed after five days. […] Without wishing to be bound by theory, the lack of interaction between […] and PYL9 may be caused by the cellular differences between yeast and Arabidopsis or because of indirect interactions between the two proteins in Arabidopsis.

Test [3] concerns the target T3, PYR1 fused to the GAL4-DNA binding domain (BD) (Arabidopsis thaliana, UniProt O49686 1-191).
T3 construct: Yeast two-hybrid construct
T3 sequence: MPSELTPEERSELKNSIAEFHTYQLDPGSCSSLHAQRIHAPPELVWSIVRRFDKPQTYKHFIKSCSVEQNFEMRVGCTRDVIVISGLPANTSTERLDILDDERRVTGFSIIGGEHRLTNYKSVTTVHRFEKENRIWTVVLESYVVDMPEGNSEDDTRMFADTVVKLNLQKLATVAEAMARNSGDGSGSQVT
The description is as above. The protocol: as §1

Test [4] concerns the target T4, PYL6 fused to the GAL4-DNA binding domain (BD) (Arabidopsis thaliana, UniProt Q8S8E3 1-215).
T4 construct: Yeast two-hybrid construct
T4 sequence: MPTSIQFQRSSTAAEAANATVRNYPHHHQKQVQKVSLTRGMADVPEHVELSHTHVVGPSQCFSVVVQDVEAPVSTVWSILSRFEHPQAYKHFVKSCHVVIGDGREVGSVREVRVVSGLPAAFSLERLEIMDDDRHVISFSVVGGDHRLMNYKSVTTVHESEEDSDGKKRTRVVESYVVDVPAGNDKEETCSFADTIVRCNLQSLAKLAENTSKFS
The description is as above. The method, then: as §1

Test [5] has as its target T5, PYL4 fused to the GAL4-DNA binding domain (BD) (Arabidopsis thaliana, UniProt O80920 1-207).
T5 construct: Yeast two-hybrid construct
T5 sequence: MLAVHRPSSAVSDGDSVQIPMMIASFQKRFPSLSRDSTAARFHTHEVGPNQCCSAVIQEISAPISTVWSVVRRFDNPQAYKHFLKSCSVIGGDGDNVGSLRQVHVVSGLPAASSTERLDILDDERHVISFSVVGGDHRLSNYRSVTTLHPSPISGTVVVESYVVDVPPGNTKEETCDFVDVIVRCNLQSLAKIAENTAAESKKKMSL
The description is as above. The protocol:
as §1

Test [6] concerns the target B2. The test is described as above. The protocol: as §1
The target in a further test is T6, PYL13-cLUC (Arabidopsis thaliana, UniProt Q9SN51 1-164).
T6 construct: LUC complementation assay in protoplasts; also called PYL13 fused to the C-terminal domain of LUC; not shown: C-terminal domain of firefly luciferase
T6 sequence: B1 chain
In words: firefly luciferase complementation in protoplasts (stronger group). The protocol:
To further characterize the interactions between PYL13 and PYLs in vivo, their interactions in protoplasts were examined by the firefly luciferase (LUC) complementation assay. PYL13 was fused to the C-terminal domain of LUC (PYL13-cLUC), and PYLs were fused to the N-terminal domain of LUC (PYLs-nLUC), and co-expressed in protoplasts. After transfection, protoplasts were incubated overnight under light at room temperature, and the LUC activities in living protoplasts were measured. Error bars indicate s.e.m. (n=6). […] PYL13 binds more strongly to PYR1, PYL1-5, PYL7, and PYL10-11 than to PYL6, PYL8-9, or PYL13 (FIG. 5B).

As for “PYL13-PYL2 protein complex (from UniProt Q9SN51 1-164; O80992 1-190)”, in test [1], the ABI1 phosphatase activity (pNPP, A405, % of ABI1 without ABA and PYLs), 10 µM ABA was 78%.

As for “PYL13-PYL1 protein complex (from UniProt Q9SN51 1-164; Q8VZS8 1-221)”, the ABI1 phosphatase activity (pNPP, A405, % of ABI1 without ABA and PYLs), 10 µM ABA in test [1] was determined as 88%.

Turning to “PYL1 (purified recombinant protein, phosphatase assay) (from UniProt Q8VZS8 1-221) (receptor)”, the ABI1 phosphatase activity (pNPP, A405, % of ABI1 without ABA and PYLs), 10 µM ABA, 0.3 µM each in test [1] turned out to be 67%.

Turning to “PYL2 (purified recombinant protein, phosphatase assay) (from UniProt O80992 1-190) (receptor)”, the ABI1 phosphatase activity (pNPP, A405, % of ABI1 without ABA and PYLs), 10 µM ABA, 0.3 µM each in test [1] stood at 50%.

With B1, the binding result in the test with PP2CA-HA is recorded as “binds”.

Regarding B2, the binding result in test [2], in test [3], in test [4] and in test [5] was “binds” each time.

For B3, in test [6], the binding result was “binds”.

Consider B4, for which the binding result in the test with PYL13-cLUC is given as “binds”.

In the case of B5, in test [6], the binding result was “binds”.
